Assay results as given in PMC9742257.
Each block holds one substance with its values, some of them ahead of it.

Experiments:
[1] = target: N-terminal tagged 3XFLAG artemin construct (A. fransciscina); assay: native MS; 24mer isolated (manual fixed quad profile of 10,000), then collision induced dissociation (argon); released subunits observed; dimers are held by inter-subunit disulfides
[2] = target: N-terminal tagged 3XFLAG artemin construct (A. fransciscina); assay: native MS; intact complex; 200 mM ammonium acetate, 1-2 uM protein, Waters Synapt G2s-i
[3] = target: N-terminal tagged 3XFLAG artemin construct (A. fransciscina); assay: cryo-EM structure; single particle cryo-EM, 0.2-1.5 mg/ml protein on Quantifoil grids, 300 keV Titan Krios; C1 ab-initio then octahedral symmetry imposed
[4] = target: artemin with a C-terminal 6xHis tag (A. fransciscina); assay: native MS; 24mer isolated (manual fixed quad profile of 10,000), then collision induced dissociation (argon); released subunits observed; dimers are held by inter-subunit disulfides
[5] = target: artemin with a C-terminal 6xHis tag (A. fransciscina); assay: native MS; intact complex; 200 mM ammonium acetate, 1-2 uM protein, Waters Synapt G2s-i
[6] = target: artemin with a C-terminal 6xHis tag (A. fransciscina); assay: native gel or EMSA; Native PAGE of the protein after affinity purification and SEC
[7] = target: artemin with a C-terminal 6xHis tag (A. fransciscina); assay: cryo-EM structure; single particle cryo-EM, 0.2-1.5 mg/ml protein on Quantifoil grids, 300 keV Titan Krios; C1 ab-initio then octahedral symmetry imposed
[8] = target: fluorescent artemin-His (A. fransciscina); assay: native MS; 24mer isolated (manual fixed quad profile of 10,000), then collision induced dissociation (argon); released subunits observed; dimers are held by inter-subunit disulfides
[9] = target: fluorescent artemin-His (A. fransciscina); assay: native MS; intact complex; 200 mM ammonium acetate, 1-2 uM protein, Waters Synapt G2s-i

stoichiometry N [1]: 2
stoichiometry N [2]: 24
stoichiometry N [3]: 24
Substance: N-terminal tagged 3XFLAG artemin construct (natural protein)

stoichiometry N [4]: 2
stoichiometry N [5]: 24
stoichiometry N [6]: 24
stoichiometry N [7]: 24
Substance: artemin with a C-terminal 6xHis tag (natural protein)

stoichiometry N [8]: 2
stoichiometry N [9]: 24
Substance: fluorescent artemin-His (natural protein)
